Experimental data as given in patent US20140087995A1 (published 2014).
Values belong to the binder of their own block, whether it stands above or below them. Numbered stars: 1 amine (or outer) side, 2 acyl side, 3 side chain; on linkers, the order of the positions; unused ones are H or OH. Bridge positions count the residues as written; N and C are the ends. Side chains are listed from the residue outwards. Ends that are not written are not given here. * marks the point of attachment. C20 diacid = O=C(O)CCCCCCCCCCCCCCCCCCC(=O)*; γGlu = O=C(O)[C@H](CCC(=O)[*:2])N[*:1]; AEEA = NCCOCCOCC(=O)O

Experiments:
[1] = biological target: T1, rat amylin receptor (rat calcitonin receptor + rat RAMP 3) (rat, UniProt P32214 25-516; Q9JJ73 23-147); assay: SPA competition with 125I-rat amylin, membranes of BHK cells with rat calcitonin receptor + rat RAMP3 (Assay VI)
T1 construct: whole, on cells; also called rAmylin-R; rat amylin 3(a) receptor
T1 sequence (looked up) 1: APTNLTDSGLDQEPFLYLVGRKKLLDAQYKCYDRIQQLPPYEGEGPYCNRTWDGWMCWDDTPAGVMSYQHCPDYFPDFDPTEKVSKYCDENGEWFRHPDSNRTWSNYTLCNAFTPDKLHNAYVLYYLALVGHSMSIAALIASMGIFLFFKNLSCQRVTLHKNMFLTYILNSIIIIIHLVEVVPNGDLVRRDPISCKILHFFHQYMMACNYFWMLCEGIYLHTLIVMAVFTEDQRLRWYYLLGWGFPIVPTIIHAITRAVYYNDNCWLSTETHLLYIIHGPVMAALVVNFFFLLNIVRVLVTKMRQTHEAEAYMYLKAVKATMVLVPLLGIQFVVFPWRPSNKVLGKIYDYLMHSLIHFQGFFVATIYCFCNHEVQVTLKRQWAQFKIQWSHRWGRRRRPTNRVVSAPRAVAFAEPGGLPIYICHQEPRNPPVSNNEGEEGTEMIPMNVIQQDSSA
T1 sequence (looked up) 2: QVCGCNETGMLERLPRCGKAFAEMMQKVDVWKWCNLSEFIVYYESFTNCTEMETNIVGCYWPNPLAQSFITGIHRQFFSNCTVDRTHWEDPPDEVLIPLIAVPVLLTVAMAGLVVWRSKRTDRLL

[2] = biological target: T2, human calcitonin receptor (human, UniProt P30988 25-474); assay: ratio of binding IC50s: human calcitonin receptor over human amylin receptor (reference)
T2 construct: whole, on cells; also called hCTR; hCT
T2 sequence (looked up): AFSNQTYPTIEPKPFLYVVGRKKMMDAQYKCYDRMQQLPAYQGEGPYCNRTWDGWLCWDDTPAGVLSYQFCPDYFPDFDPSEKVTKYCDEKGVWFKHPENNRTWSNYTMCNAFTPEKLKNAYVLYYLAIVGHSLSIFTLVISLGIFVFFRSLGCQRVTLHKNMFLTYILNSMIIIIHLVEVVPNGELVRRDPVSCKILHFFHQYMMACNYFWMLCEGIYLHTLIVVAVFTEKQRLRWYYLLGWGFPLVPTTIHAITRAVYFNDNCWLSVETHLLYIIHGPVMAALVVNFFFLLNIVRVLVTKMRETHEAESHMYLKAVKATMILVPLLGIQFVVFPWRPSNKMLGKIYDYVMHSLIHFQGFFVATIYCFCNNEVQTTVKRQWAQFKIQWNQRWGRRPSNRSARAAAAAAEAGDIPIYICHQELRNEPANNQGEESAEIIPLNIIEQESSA
In short: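 Membranes (35 ng/μL final) + SPA beads, 50 mM Hepes pH 7.4 buffer with 1 mM CaCl2, 5 mM MgCl₂, 0.1% OA, 0.02% Tween20; 120 min, 25° C, shaking; centrifuged, counted; IC₅₀ by one-site binding competition.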

rat calcitonin receptor [3] = biological target: T3, rat calcitonin receptor (rat, UniProt P32214 25-516); assay: SPA competition with 125I-calcitonin, membranes of BHK cells with rat calcitonin receptor (Assay VIII)
T3 construct: whole, on cells; also called rCTR; rat calcitonin (a) receptor
T3 sequence (looked up): T1 sequence (looked up) 1

rat calcitonin receptor [4] = biological target: T3, rat calcitonin receptor; assay: ratio of binding IC50s: rat calcitonin receptor over rat amylin receptor (reference)

IC50 [1]: 4.89 nM
Ratio hCT/hAmylin binding [2]: 101
IC50 (rat calcitonin receptor [3]): 109 nM
Ratio rCT/rAmylin binding (rat calcitonin receptor [4]): 22.3
B1: N^ε1-[2-[2-[2-[[(4S)-4-carboxy-4-(19-carboxynonadecanoylamino)butanoyl]amino]ethoxy]ethoxy]acetyl]-[Lys14,Arg17,Pro21,Pro27,Pro31]-h-amylin (peptide)
peptide: K([AEEA-γGlu-C20 diacid])CNTATCATQRLAKFLRHSSPNFGAIPSSTPVGSNTY-NH2
modifications: disulfide 2-7; N-terminus assumed
SMILES: CC[C@H](C)[C@H](NC(=O)[C@H](C)NC(=O)CNC(=O)[C@H](Cc1ccccc1)NC(=O)[C@H](CC(N)=O)NC(=O)[C@@H]1CCCN1C(=O)[C@H](CO)NC(=O)[C@H](CO)NC(=O)[C@H](Cc1c[nH]cn1)NC(=O)[C@H](CCCNC(=N)N)NC(=O)[C@H](CC(C)C)NC(=O)[C@H](Cc1ccccc1)NC(=O)[C@H](CCCCN)NC(=O)[C@H](C)NC(=O)[C@H](CC(C)C)NC(=O)[C@H](CCCNC(=N)N)NC(=O)[C@H](CCC(N)=O)NC(=O)[C@@H](NC(=O)[C@H](C)NC(=O)[C@@H]1CSSC[C@H](NC(=O)[C@@H](N)CCCCNC(=O)COCCOCCNC(=O)CC[C@H](NC(=O)CCCCCCCCCCCCCCCCCCC(=O)O)C(=O)O)C(=O)N[C@@H](CC(N)=O)C(=O)N[C@@H]([C@@H](C)O)C(=O)N[C@@H](C)C(=O)N[C@@H]([C@@H](C)O)C(=O)N1)[C@@H](C)O)C(=O)N1CCC[C@H]1C(=O)N[C@@H](CO)C(=O)N[C@@H](CO)C(=O)N[C@H](C(=O)N1CCC[C@H]1C(=O)N[C@H](C(=O)NCC(=O)N[C@@H](CO)C(=O)N[C@@H](CC(N)=O)C(=O)N[C@H](C(=O)N[C@@H](Cc1ccc(O)cc1)C(N)=O)[C@@H](C)O)C(C)C)[C@@H](C)O
notes: synthetic analogue of human amylin; also called compound 74

IC50 [1]: 0.283 nM
Ratio hCT/hAmylin binding [2]: 51.7
IC50 (rat calcitonin receptor [3]): 50.3 nM
Ratio rCT/rAmylin binding (rat calcitonin receptor [4]): 178
B2: N^ε1-[2-[2-[2-[[(4S)-4-carboxy-4-(19-carboxynonadecanoylamino)butanoyl]amino]ethoxy]ethoxy]acetyl]-[Ser14,Arg17,Pro21,Pro27,Pro31]-h-amylin (peptide)
peptide: K([AEEA-γGlu-C20 diacid])CNTATCATQRLASFLRHSSPNFGAIPSSTPVGSNTY-NH2
modifications: disulfide 2-7; N-terminus assumed
SMILES: CC[C@H](C)[C@H](NC(=O)[C@H](C)NC(=O)CNC(=O)[C@H](Cc1ccccc1)NC(=O)[C@H](CC(N)=O)NC(=O)[C@@H]1CCCN1C(=O)[C@H](CO)NC(=O)[C@H](CO)NC(=O)[C@H](Cc1c[nH]cn1)NC(=O)[C@H](CCCNC(=N)N)NC(=O)[C@H](CC(C)C)NC(=O)[C@H](Cc1ccccc1)NC(=O)[C@H](CO)NC(=O)[C@H](C)NC(=O)[C@H](CC(C)C)NC(=O)[C@H](CCCNC(=N)N)NC(=O)[C@H](CCC(N)=O)NC(=O)[C@@H](NC(=O)[C@H](C)NC(=O)[C@@H]1CSSC[C@H](NC(=O)[C@@H](N)CCCCNC(=O)COCCOCCNC(=O)CC[C@H](NC(=O)CCCCCCCCCCCCCCCCCCC(=O)O)C(=O)O)C(=O)N[C@@H](CC(N)=O)C(=O)N[C@@H]([C@@H](C)O)C(=O)N[C@@H](C)C(=O)N[C@@H]([C@@H](C)O)C(=O)N1)[C@@H](C)O)C(=O)N1CCC[C@H]1C(=O)N[C@@H](CO)C(=O)N[C@@H](CO)C(=O)N[C@H](C(=O)N1CCC[C@H]1C(=O)N[C@H](C(=O)NCC(=O)N[C@@H](CO)C(=O)N[C@@H](CC(N)=O)C(=O)N[C@H](C(=O)N[C@@H](Cc1ccc(O)cc1)C(N)=O)[C@@H](C)O)C(C)C)[C@@H](C)O
notes: synthetic analogue of human amylin; also called compound 73
